We go through 1 substance from patent publication US20220380433A1.

Test [1] deals with H63 CAR as expressed from H63 CAR-2A-TMEM59, on H63 CAR-2A-TMEM59-T lymphocytes. Nature of the test: flow cytometry; biotin-protein L and PE-streptavidin on H63 CAR-2A-TMEM59-T lymphocytes. A general note: Flow cytometry measures light scatter and fluorescence of single cells or particles in a stream.
The target of test [2] is H63 CAR (CD8 signal peptide-H63-human CD8 hinge region-human CD8 transmembrane region-human 4-1BB costimulatory domain-CD3zeta signaling domain), on H63 CAR-T lymphocytes. Kind of test: flow cytometry; biotin-protein L and PE-streptavidin on H63 CAR-T lymphocytes.
H63 CAR (CD8 signal peptide-H63-human CD8 hinge region-human CD8 transmembrane region-human 4-1BB costimulatory domain-CD3zeta signaling domain), on H63 CAR-T lymphocytes, sequence (chain, as listed by the source): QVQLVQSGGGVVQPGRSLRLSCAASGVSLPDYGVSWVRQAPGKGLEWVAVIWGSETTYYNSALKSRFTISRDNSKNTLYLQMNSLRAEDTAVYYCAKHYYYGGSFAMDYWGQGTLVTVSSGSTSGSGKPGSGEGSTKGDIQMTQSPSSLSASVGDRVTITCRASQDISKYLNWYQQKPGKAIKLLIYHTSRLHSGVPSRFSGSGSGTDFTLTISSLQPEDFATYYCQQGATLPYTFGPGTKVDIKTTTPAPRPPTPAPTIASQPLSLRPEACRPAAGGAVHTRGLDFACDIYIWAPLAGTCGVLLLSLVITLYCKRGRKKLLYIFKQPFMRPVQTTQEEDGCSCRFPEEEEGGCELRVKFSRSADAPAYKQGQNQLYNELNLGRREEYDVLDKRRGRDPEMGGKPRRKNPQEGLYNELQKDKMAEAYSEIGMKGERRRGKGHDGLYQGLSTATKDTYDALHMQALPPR

H63 CAR as expressed from H63 CAR-2A-TMEM59, on H63 CAR-2A-TMEM59-T lymphocytes, sequence (chain, as listed by the source): as above

Take “biotin-protein L (ACROBIOSYSTEMS, RPL-P814R)”: the CAR positive cells % (protein L-positive) in test [1] was found to be 83.2%; in test [2] it was 82.7%.
